# Test results published in the supplement of paper PMC10567573.
# B1: TMEM192 (parent)
# chain: LWILHLLLECYIQYHHSKIRNRGY
# B2: RAD51 (parent)
# chain: APKKELINIKGISEAKADKILAEA
# Variants of: B1
# Assay: protein stability index of a GFP-peptide fusion (GPS, HEK-293T) (PSI 1-6); higher = more stable
# Conditions: c terminus: a fixed tail appended
# 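Further: lentivirally expressed fusions sorted by FACS into six bins by GFP to DsRed ratio, PSI derived from sequencing read proportions per bin multiplied by bin number.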
row,Variant,protein stability index
1,LWILHLLLECYIQYHHSFIRNRGY,2.88
2,LWILHLLLECYIQYHHSNIRNRGY,3.08
3,LWILHLLLECYIQYHHSSIRNRGY,3.8
4,LWILVLLLECYIQYHHSKIRNRGY,2.22
5,LWILHLLLGCYIQYHHSKIRNRGY,2
6,LWILHLLLECYIQYHHSKIRSRGY,2.7
7,LWILHLLLECYIQYHHSKIRIRGY,2.45
8,LWILHLLLECYIQYHHSKIRNRWY,1.77
9,LWILHLLLECYIQYHHSKIRNSGY,2.66
10,LWILHLLLECYIQGHHSKIRNRGY,1.41
11,LWILHLLLECYIQYLHSKIRNRGY,2.14
12,LWITHLLLECYIQYHHSKIRNRGY,1.17
13,LGILHLLLECYIQYHHSKIRNRGY,2.73
14,MWILHLLLECYIQYHHSKIRNRGY,1.48
15,VWILHLLLECYIQYHHSKIRNRGY,2.17
16,YWILHLLLECYIQYHHSKIRNRGY,2.72
17,LWILHLLLECYIQYHHSKIRNRGT,1.12
18,LWILHLLLECYIQYHHSKIRNRGC,1.79
19,LWILHLLLECYIQYHHSKIRNRGH,1.62
20,LWILHLVLECYIQYHHSKIRNRGY,3.56
21,LWILHLTLECYIQYHHSKIRNRGY,3.78
22,LWILHLCLECYIQYHHSKIRNRGY,2.32
23,LWILHLFLECYIQYHHSKIRNRGY,1.88
24,LWILHGLLECYIQYHHSKIRNRGY,1.69
25,LWILHLLLECTIQYHHSKIRNRGY,2.21
26,LWILHLLLECQIQYHHSKIRNRGY,2.06
27,LWELHLLLECYIQYHHSKIRNRGY,1.68
28,LWNLHLLLECYIQYHHSKIRNRGY,2.2
29,LWALHLLLECYIQYHHSKIRNRGY,1.76
30,LWILHLLSECYIQYHHSKIRNRGY,4.08

# Variants of: B2
# Assay: as above
# Conditions: c terminus: a fixed tail appended
row,Variant,protein stability index
1,APKKELINIKGISEAKSDKILAEA,5
2,APKKELINIKGISEAKGDKILAEA,4.84
3,APKKELINIKGISEAKTDKILAEA,4.42
4,APKKELINIKGISEAKPDKILAEA,4.82
5,APKKELINIKGISEAKQDKILAEA,5.11
6,APKKELINIKGISEAKVDKILAEA,4.53
7,APKKELINIKGISEAKMDKILAEA,4.43
8,APKKELINIKGISEAKWDKILAEA,3.98
9,APKKELINIKGISEAKIDKILAEA,4.15
10,APKKELINIKGISEAKCDKILAEA,5.04
11,APKKELINIKGISEAKYDKILAEA,4.08
12,APKKELINIKGISEAKDDKILAEA,5.51
13,APKKELINIKGISEAKNDKILAEA,4.94
14,APKKELINIKGISEAKHDKILAEA,4.49
15,APKKELINIKGISEAKFDKILAEA,3.73
16,APKKELINIKGISEAKEDKILAEA,5.22
17,APKKELINIKGISEAKLDKILAEA,4.53
18,APKKELINIKGISEAKRDKILAEA,4.62
19,APKKELINIKGISEAKKDKILAEA,4.83
20,APKKELINIKGISEAKADKICAEA,5.15
21,APKKELINIKGISEAKADKIIAEA,5.32
22,APKKELINIKGISEAKADKIAAEA,4.91
23,APKKELINIKGISEAKADKIFAEA,4.13

row,Variant,protein stability index
1,APKKELINIKGISEAKADKIPAEA,5.21
2,APKKELINIKGISEAKADKIYAEA,4.58
3,APKKELINIKGISEAKADKIDAEA,5.58
4,APKKELINIKGISEAKADKITAEA,5.25
5,APKKELINIKGISEAKADKINAEA,5.02
6,APKKELINIKGISEAKADKIEAEA,4.54
7,APKKELINIKGISEAKADKIKAEA,5.2
8,APKKELINIKGISEAKADKIHAEA,4.95
9,APKKELINIKGISEAKADKIGAEA,4.73
10,APKKELINIKGISEAKADKISAEA,5.46
11,APKKELINIKGISEAKADKIWAEA,4.27
12,APKKELINIKGISEAKADKIQAEA,5.18
13,APKKELINIKGISEAKADKIVAEA,4.79
14,APKKELINIKGISEAKADKIMAEA,4.98
15,APKKELINIKGISEAKADKIRAEA,4.96
16,APKKELINIKGISEAKADEILAEA,5.12
17,APKKELINIKGISEAKADLILAEA,3.89
18,APKKELINIKGISEAKADHILAEA,4.3
19,APKKELINIKGISEAKADAILAEA,3.63
20,APKKELINIKGISEAKADVILAEA,4.49
21,APKKELINIKGISEAKADTILAEA,4.83
22,APKKELINIKGISEAKADFILAEA,3.7
23,APKKELINIKGISEAKADPILAEA,4.48

row,Variant,protein stability index
1,APKKELINIKGISEAKADCILAEA,4.44
2,APKKELINIKGISEAKADMILAEA,4.43
3,APKKELINIKGISEAKADYILAEA,4.61
4,APKKELINIKGISEAKADGILAEA,4.93
5,APKKELINIKGISEAKADRILAEA,4.26
6,APKKELINIKGISEAKADQILAEA,4.78
7,APKKELINIKGISEAKADSILAEA,4.89
8,APKKELINIKGISEAKADNILAEA,4.84
9,APKKELINIKGISEAKADDILAEA,4.98
10,APKKELINIKGISEAKADWILAEA,3.48
11,APKKELINIKGISEAKADIILAEA,3.38
12,APKKELINIKGISEAKADKILAEK,5.26
13,APKKELINIKGISEAKADKILAEL,4.4
14,APKKELINIKGISEAKADKILAEY,3.76
15,APKKELINIKGISEAKADKILAEN,4.96
16,APKKELINIKGISEAKADKILAEP,4.91
17,APKKELINIKGISEAKADKILAEI,3.61
18,APKKELINIKGISEAKADKILAEF,3.53
19,APKKELINIKGISEAKADKILAEW,3.97
20,APKKELINIKGISEAKADKILAER,4.83
21,APKKELINIKGISEAKADKILAEH,4.76
22,APKKELINIKGISEAKADKILAET,5.36
23,APKKELINIKGISEAKADKILAEQ,5.1

row,Variant,protein stability index
1,APKKELINIKGISEAKADKILAED,4.83
2,APKKELINIKGISEAKADKILAEE,3.9
3,APKKELINIKGISEAKADKILAES,4.75
4,APKKELINIKGISEAKADKILAEG,4.9
5,APKKELINIKGISEAKADKILAEC,4.51
6,APKKELINIKGISEAKADKILAEV,4.26
7,APKKELINIKGISEAKADKILAEM,4.34
8,APKKELINIKGISEAKADKPLAEA,5.5
9,APKKELINIKGISEAKADKNLAEA,5.38
10,APKKELINIKGISEAKADKTLAEA,5.16
11,APKKELINIKGISEAKADKLLAEA,4.86
12,APKKELINIKGISEAKADKHLAEA,5.11
13,APKKELINIKGISEAKADKSLAEA,4.95
14,APKKELINIKGISEAKADKQLAEA,5.69
15,APKKELINIKGISEAKADKCLAEA,5.14
16,APKKELINIKGISEAKADKWLAEA,4.26
17,APKKELINIKGISEAKADKFLAEA,4.02
18,APKKELINIKGISEAKADKMLAEA,5.16
19,APKKELINIKGISEAKADKELAEA,5.33
20,APKKELINIKGISEAKADKALAEA,5.03
21,APKKELINIKGISEAKADKGLAEA,5.1
22,APKKELINIKGISEAKADKYLAEA,4.61
23,APKKELINIKGISEAKADKVLAEA,4.97

row,Variant,protein stability index
1,APKKELINIKGISEAKADKKLAEA,5.46
2,APKKELINIKGISEAKADKRLAEA,4.75
3,APKKELINIKGISEAKADKDLAEA,5.47
4,APKKELINIKGISEAYADKILAEA,3.93
5,APKKELINIKGISEASADKILAEA,4.61
6,APKKELINIKGISEARADKILAEA,4.53
7,APKKELINIKGISEATADKILAEA,5.22
8,APKKELINIKGISEAWADKILAEA,1.64
9,APKKELINIKGISEAVADKILAEA,3.98
10,APKKELINIKGISEAKADKILLEA,4.19
11,APKKELINIKGISEAKADKILMEA,4.75
12,APKKELINIKGISEAKADKILCEA,4.25
13,APKKELINIKGISEAKADKILEEA,5.28
14,APKKELINIKGISEAKADKILWEA,3.58
15,APKKELINIKGISEAKADKILKEA,5.24
16,APKKELINIKGISEAKADKILPEA,4.83
17,APKKELINIKGISEAKADKILQEA,5.15
18,APKKELINIKGISEAKADKILVEA,4.79
19,APKKELINIKGISEAKADKILDEA,5.38
20,APKKELINIKGISEAKADKILGEA,4.62
21,APKKELINIKGISEAKADKILHEA,4.52
22,APKKELINIKGISEAKADKILIEA,4.25
23,APKKELINIKGISEAKADKILTEA,3.9

row,Variant,protein stability index
1,APKKELINIKGISEAKADKILYEA,3.8
2,APKKELINIKGISEAKADKILSEA,4.61
3,APKKELINIKGISEAKADKILREA,4.84
4,APKKELINIKGISEAKADKILNEA,4.59
5,APKKELINIKGISEAKADKILFEA,3.98
6,APKKELINIKGISEAKAFKILAEA,2.59
7,APKKELINIKGISEAKACKILAEA,3.36
8,APKKELINIKGISEAKARKILAEA,4.07
9,APKKELINIKGISEAKAIKILAEA,3.62
10,APKKELINIKGISEAKASKILAEA,3.53
11,APKKELINIKGISEAKAAKILAEA,4.26
12,APKKELINIKGISEAKAPKILAEA,5.17
13,APKKELINIKGISEAKAEKILAEA,3.83
14,APKKELINIKGISEAKAMKILAEA,3.31
15,APKKELINIKGISEAKAKKILAEA,4.78
16,APKKELINIKGISEAKAVKILAEA,4.07
17,APKKELINIKGISEAKAHKILAEA,4.29
18,APKKELINIKGISEAKAYKILAEA,2.63
19,APKKELINIKGISEAKANKILAEA,4.04
20,APKKELINIKGISEAKALKILAEA,3.9
21,APKKELINIKGISEAKAWKILAEA,2.76
22,APKKELINIKGISEAKAGKILAEA,4.16
23,APKKELINIKGISEAKATKILAEA,4.04

row,Variant,protein stability index
1,APKKELINIKGISEAKAQKILAEA,4.27
2,APKKELINIKGISEAKADKILAGA,4.1
3,APKKELINIKGISEAKADKILAFA,3.46
4,APKKELINIKGISEAKADKILAIA,3.36
5,APKKELINIKGISEAKADKILASA,3.79
6,APKKELINIKGISEAKADKILALA,3.43
7,APKKELINIKGISEAKADKILATA,4.13
8,APKKELINIKGISEAKADKILAMA,3.72
9,APKKELINIKGISEAKADKILAWA,3.02
10,APKKELINIKGISEAKADKILAKA,4.46
11,APKKELINIKGISEAKADKILADA,4.96
12,APKKELINIKGISEAKADKILAVA,3.73
13,APKKELINIKGISEAKADKILAHA,3.85
14,APKKELINIKGISEAKADKILANA,4.58
15,APKKELINIKGISEAKADKILAAA,4.18
16,APKKELINIKGISEAKADKILAQA,4.26
17,APKKELINIKGISEAKADKILARA,3.85
18,APKKELINIKGISEAKADKILACA,3.38
19,APKKELINIKGISEAKADKILAYA,3.37
20,APKKELINIKGISEAKADKILAPA,4.34
